Measured values from patent US20260210939A1, “MODIFIED OLFACTORY RECEPTORS” (GIVAUDAN SA, priority 2022, published 2026).
Where two headings read alike, the source gives them in different places. Values belong to the compound of their own block, whether it stands above or below them.

Legend:
OR8K3 = target: T1, OR8K3 (Homo sapiens, UniProt Q8NH51, D295E/L122R/Y298D); assay: cell-based; assay type: cell-based
T1 construct: Improved functional expression of modified OR-genes containing the truncated, optimized C-terminus; expressed in transfected cells; host or cells: HEK293T stably expressing human RTP1S(V227I) and RTP2(L220R)
T1 sequence (Q8NH51 with tags, fused parts or gaps L122R/D295E/Y298D): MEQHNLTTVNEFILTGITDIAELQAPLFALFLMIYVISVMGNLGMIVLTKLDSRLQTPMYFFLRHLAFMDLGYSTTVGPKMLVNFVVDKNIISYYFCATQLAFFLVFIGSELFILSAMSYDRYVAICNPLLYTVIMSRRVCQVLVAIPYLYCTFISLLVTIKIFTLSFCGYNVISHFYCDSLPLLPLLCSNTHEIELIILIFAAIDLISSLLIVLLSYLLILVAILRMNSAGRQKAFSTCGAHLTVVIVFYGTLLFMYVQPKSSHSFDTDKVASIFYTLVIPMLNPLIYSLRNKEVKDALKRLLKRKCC

OR7C1 = target: T2, OR7C1 (Homo sapiens, UniProt O76099, D296E/G302K/M297V/R299D/T295K/V126I); assay: CRE-luciferase assay, HEK293T cells expressing OR7C1 (wild-type / modified C-terminus); assay type: cell-based
T2 construct: Improved functional expression of modified OR-genes containing the truncated, optimized C-terminus; expressed in transfected cells; host or cells: HEK293T stably expressing human RTP1S(V227I) and RTP2(L220R)
T2 sequence (O76099 with tags, fused parts or gaps V126I/T295K/D296E/M297V/R299D/G302K): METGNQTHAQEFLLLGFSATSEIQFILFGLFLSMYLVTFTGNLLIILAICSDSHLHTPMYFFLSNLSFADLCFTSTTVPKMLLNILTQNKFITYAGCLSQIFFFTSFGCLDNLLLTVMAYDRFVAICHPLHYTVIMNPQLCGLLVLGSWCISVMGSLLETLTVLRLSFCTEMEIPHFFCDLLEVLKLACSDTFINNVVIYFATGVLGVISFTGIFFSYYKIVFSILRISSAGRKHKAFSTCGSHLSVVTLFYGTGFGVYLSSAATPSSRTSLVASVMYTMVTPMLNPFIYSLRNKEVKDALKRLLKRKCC
From the text: To test for possible variants of the sequence […]CC (SEQ ID NO: 86) leading to similar improved functional expression, different point mutations were introduced into the first 16 amino acids of this sequence (corresponding to […], SEQ ID NO: 10) and the variants were fused after the TM7 with OR7C1. […] The test concentrations were selected to fall into the range of partial activity of the wild-type sequence.

OR5B12 = target: T3, OR5B12 (Homo sapiens, UniProt Q96R08, C141R); assay: CRE-luciferase assay, HEK293T cells expressing OR5B12 (wild-type / modified C-terminus); assay type: cell-based; conditions: OR5B12 variant
T3 construct: Improved functional expression of modified OR-genes containing the truncated, optimized C-terminus; expressed in transfected cells; host or cells: HEK293T stably expressing human RTP1S(V227I) and RTP2(L220R)
T3 sequence (Q96R08 with tags, fused parts or gaps C141R): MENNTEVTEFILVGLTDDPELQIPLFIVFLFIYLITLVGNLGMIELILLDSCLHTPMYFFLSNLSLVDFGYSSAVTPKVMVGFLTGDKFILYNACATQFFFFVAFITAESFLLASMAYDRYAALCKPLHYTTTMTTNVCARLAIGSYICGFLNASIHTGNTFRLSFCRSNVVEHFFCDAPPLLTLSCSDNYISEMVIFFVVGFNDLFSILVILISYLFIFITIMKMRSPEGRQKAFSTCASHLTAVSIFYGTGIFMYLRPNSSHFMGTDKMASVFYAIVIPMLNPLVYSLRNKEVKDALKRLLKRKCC

OR2T4 = target: T4, OR2T4 (Homo sapiens, UniProt Q8NH00, D328E/G331D/M330K); conditions: OR2T4 variant
T4 sequence (Q8NH00 with tags, fused parts or gaps D328E/M330K/G331D): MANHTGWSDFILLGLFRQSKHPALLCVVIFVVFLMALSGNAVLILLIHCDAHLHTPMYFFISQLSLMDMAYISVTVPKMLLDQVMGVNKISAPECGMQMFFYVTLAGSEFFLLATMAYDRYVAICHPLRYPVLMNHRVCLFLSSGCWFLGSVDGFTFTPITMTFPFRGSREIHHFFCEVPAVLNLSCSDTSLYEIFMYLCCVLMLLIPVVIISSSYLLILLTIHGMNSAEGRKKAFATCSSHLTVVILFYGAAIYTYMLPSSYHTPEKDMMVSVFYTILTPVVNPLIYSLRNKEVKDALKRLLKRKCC

OR7D4 = target: T5, OR7D4 (Homo sapiens, UniProt Q8NG98, D296E/E302K/G299D); assay: CRE-luciferase assay, HEK cells expressing OR7D4 (wild-type / modified C-terminus); assay type: cell-based; conditions: OR7D4 variant, Androstenone
T5 construct: Improved functional expression of modified OR-genes containing the truncated, optimized C-terminus; expressed in transfected cells
T5 sequence (Q8NG98 with tags, fused parts or gaps D296E/G299D/E302K): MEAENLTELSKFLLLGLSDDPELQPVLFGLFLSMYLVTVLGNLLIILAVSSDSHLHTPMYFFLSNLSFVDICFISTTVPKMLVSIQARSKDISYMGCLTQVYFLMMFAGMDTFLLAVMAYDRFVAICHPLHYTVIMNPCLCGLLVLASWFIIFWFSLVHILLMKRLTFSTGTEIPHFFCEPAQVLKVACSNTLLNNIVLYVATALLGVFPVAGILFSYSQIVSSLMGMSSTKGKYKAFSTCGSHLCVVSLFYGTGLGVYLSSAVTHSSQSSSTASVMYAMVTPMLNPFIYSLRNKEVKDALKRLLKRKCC
From the text: Random permutations of the general C-terminal sequence RN[KR][EDQ][VMIL][KR]KA[LIV][KRH][KR][LI][LIF][KRG][KR][KR]CC (SEQ ID NO: 822) linked to OR7D4 were generated based on degenerate oligonucleotides for the C-terminal domain. For this experiment, the MfeI/XhoI fragment from pcDNA3.1(+)-mmLucy-FLAG-rho-OR7D4 containing the CMV promoter and the OR coding sequence was used to replace the EcoRI/SalI fragment of pRDVCCB-CMV-dCas9-VPH-2A-Blast (Cellecta, Inc., Mountain View, USA). Complementary degenerate oligonucleotides were then used to replace the coding region of the C-terminal domain of […] (between Bsu36I and NotI). Random clones were selected, sequenced and tested for a correct open reading frame. A total of 55 clones were obtained with the correct open reading frame of […] and a permutation of the general sequence RN[KR][EDQ][VMIL][KR]KA[LIV][KRH][KR][LI][LIF][KRG][KR][KR]CC (SEQ ID NO: 822) as the C-terminal domain. All the different clones were compared to the wild-type sequence by the functional assay in HEK cells with the ligand Androstenone tested in a dose-response test.

OR5A2 = target: T6, OR5A2 (Homo sapiens, UniProt Q8NGI9); assay: CRE-luciferase assay, HEK293T cells expressing OR5A2 (wild-type / modified C-terminus); assay type: cell-based; conditions: OR5A2 variant
T6 construct: Improved functional expression of modified OR-genes containing the truncated, optimized C-terminus; expressed in transfected cells; host or cells: HEK293T with stably integrated human RTP1S(V227I) and RTP2(L220R)
T6 sequence (Q8NGI9 with tags, fused parts or gaps): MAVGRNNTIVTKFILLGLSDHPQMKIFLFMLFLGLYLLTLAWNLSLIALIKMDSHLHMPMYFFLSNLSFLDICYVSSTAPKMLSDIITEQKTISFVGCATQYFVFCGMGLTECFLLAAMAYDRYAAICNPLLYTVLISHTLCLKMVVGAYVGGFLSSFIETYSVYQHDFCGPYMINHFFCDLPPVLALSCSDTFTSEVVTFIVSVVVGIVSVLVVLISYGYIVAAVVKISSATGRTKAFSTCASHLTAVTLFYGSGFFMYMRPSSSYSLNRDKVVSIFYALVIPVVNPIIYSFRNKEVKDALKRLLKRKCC

OR52A5 = target: T7, OR52A5 (Homo sapiens, UniProt Q9H2C5); assay type: cell-based
T7 construct: Improved functional expression of modified OR-genes containing the truncated, optimized C-terminus; expressed in transfected cells; host or cells: HEK293T stably expressing human RTP1S(V227I) and RTP2(L220R)
T7 sequence (Q9H2C5 with tags, fused parts or gaps): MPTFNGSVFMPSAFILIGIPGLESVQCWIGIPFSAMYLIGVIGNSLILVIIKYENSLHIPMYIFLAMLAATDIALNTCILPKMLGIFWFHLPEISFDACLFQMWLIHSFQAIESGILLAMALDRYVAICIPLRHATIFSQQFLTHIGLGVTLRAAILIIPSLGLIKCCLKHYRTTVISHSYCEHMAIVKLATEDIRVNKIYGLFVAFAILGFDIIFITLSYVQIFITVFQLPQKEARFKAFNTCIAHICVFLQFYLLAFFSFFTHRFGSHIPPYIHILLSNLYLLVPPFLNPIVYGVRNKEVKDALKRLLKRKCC
Experimental: Further variants of the improved C-terminal domain sequence […] (SEQ ID NO: 86) and falling within the general sequence RN[KR][EDQ][VMIL][KR]xA[LIV][KRH][KR][LI][LIF][KRG][KR][KR] (SEQ ID NO: 1) with further amino acids at the C-terminal end (CC) were tested on the class I receptor OR52A5 activated by 4-ethyloctanoic acid. […] This activation is further improved by either replacing amino acid position 4-6 with the sequence QIR or by adding the terminal sequence RRR.

Compound: CC1CCC(C(C)C)C(O)C1 (stereo not shown) [Menthol]
- Comments on efficacy (OR8K3): 3-fold lower
- functional response of chimeric OR8K3 (OR8K3; C-terminal sequence of OR1N2 or OR5AN1): did not show any functional response
- EC50 (OR8K3; changed C-term. SEQ ID NO: 86): 115 µM
- Fold-improvement potency (OR8K3; changed C-term. vs wild-type): 2
- Fold-improvement threshold (OR8K3; changed C-term. vs wild-type): 14.4
- EC50 (OR8K3; wild-type): 236 µM

- inactive up to concentration (OR8K3; wild-type OR8K3): > 316 µM
Compound: CC(C)[C@@H]1CC[C@@H](C)CC1=O [menthone]
- activation of the modified receptor variant (OR8K3; OR8K3, SEQ ID NO: 86): also activating the receptor, although with a lower potency

- luciferase induction (OR7C1; 1 μM of Ambermax): around 10 fold
- % of the activation by the optimized sequence RNKEVKDALKRLLKRKCC (OR7C1; OR7C1 variant, 1 μM Ambermax): 100%
- % of the activation by the optimized sequence RNKEVKDALKRLLKRKCC (OR5B12; 31 μM Hedione HC): 100%
- % of the activation by the optimized sequence RNKEVKDALKRLLKRKCC (OR5B12; 62.5 μM Hedione HC): 100%
- % of the activation by the optimized sequence RNKEVKDALKRLLKRKCC (OR2T4; 4 μM 2-methyl-3-tetrahydrofuranethiol): 100%
- % of the activation by the optimized sequence RNKEVKDALKRLLKRKCC (OR2T4; 8 μM 2-methyl-3-tetrahydrofuranethiol): 100%
- % of the activation by the optimized sequence RNKEVKDALKRLLKRKCC (OR2T4; 10 μM Cyclopentanethiol, 30 μM copper): 100%
- % of the activation by the optimized sequence RNKEVKDALKRLLKRKCC (OR2T4; 31 μM Cyclopentanethiol, 30 μM copper): 100%
- EC2 (concentration for 2-fold luciferase induction) (OR7D4): 0.007 µM
- EC2 Fold-improvement vs. wild-type (OR7D4): 249.44
- fold-induction of luciferase (OR5A2; muscone 0.01 μM): 1.07
- fold-induction of luciferase (OR5A2; muscone 0.03 μM): 1.48
- fold-induction of luciferase (OR5A2; muscone 0.10 μM): 3.57
- fold-induction of luciferase (OR5A2; muscone 0.32 μM): 10.02
- fold-induction of luciferase (OR5A2; muscone 1.00 μM): 21.98
- fold-induction of luciferase (OR5A2; muscone 3.16 μM): 31.84
- fold-induction of luciferase (OR5A2; muscone 10.00 μM): 33.98
Compound: SEQ ID NO: 86: optimized C-terminal sequence fused after TM7 of the OR of the assay (RNKEVKDALKRLLKRKCC; source 1..18: note = C-terminal domain sequence)
- fold induction of luciferase by 4-ethyloctanoic acid (OR52A5; 1 µM): 2.21
- fold induction of luciferase by 4-ethyloctanoic acid (OR52A5; 10 µM): 3.53
- fold induction of luciferase by 4-ethyloctanoic acid (OR52A5; 31 µM): 7.64
